The values below come from US20050227296A1 (GENERAL HOSPITAL CORPORATION A MASSACHUSETTS, published 2005).

The target of the experiment is T1, complement iC3b on erythrocytes (EAiC3b) (human, UniProt P01024 23-667; P01024 749-1303; P01024 1321-1663, limits assumed).
T1 construct: iC3b is a multi-chain fragment of C3; also called human iC3b
Nature of the experiment: fluoresceinated EAiC3b on immobilized protein.

T1 sequence (P01024 23-667 limits assumed, chain 1 of 3): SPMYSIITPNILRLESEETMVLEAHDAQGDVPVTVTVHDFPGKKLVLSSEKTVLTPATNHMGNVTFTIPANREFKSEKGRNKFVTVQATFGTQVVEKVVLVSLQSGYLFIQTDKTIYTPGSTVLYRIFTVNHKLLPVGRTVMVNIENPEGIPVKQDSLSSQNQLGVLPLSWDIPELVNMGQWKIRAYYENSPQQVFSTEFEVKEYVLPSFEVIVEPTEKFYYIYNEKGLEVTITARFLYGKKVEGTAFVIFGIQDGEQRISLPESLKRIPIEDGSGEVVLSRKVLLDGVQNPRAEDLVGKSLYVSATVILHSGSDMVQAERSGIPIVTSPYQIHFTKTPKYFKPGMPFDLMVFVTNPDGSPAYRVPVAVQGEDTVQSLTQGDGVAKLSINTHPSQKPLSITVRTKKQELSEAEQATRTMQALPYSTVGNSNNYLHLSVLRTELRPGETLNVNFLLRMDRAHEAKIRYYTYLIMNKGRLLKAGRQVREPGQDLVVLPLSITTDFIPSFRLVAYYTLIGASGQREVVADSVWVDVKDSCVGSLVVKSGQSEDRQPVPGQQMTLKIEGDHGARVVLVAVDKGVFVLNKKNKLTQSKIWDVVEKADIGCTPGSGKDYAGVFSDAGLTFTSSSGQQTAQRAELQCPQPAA
T1 sequence (P01024 749-1303 limits assumed, chain 2 of 3): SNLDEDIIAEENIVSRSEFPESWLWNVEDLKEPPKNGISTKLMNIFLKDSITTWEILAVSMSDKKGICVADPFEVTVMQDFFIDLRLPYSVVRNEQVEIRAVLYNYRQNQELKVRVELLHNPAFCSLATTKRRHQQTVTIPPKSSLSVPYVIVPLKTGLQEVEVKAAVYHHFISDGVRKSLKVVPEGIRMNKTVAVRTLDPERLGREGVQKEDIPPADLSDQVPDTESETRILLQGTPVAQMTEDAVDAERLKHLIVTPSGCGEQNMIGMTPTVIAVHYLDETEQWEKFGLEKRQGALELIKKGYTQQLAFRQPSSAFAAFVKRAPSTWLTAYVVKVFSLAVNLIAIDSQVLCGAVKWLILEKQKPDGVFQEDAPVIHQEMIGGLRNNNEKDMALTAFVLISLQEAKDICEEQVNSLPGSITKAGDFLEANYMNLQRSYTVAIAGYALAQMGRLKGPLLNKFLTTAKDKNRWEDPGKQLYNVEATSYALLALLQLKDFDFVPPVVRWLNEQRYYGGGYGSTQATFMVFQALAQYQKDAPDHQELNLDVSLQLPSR
T1 sequence (P01024 1321-1663 limits assumed, chain 3 of 3): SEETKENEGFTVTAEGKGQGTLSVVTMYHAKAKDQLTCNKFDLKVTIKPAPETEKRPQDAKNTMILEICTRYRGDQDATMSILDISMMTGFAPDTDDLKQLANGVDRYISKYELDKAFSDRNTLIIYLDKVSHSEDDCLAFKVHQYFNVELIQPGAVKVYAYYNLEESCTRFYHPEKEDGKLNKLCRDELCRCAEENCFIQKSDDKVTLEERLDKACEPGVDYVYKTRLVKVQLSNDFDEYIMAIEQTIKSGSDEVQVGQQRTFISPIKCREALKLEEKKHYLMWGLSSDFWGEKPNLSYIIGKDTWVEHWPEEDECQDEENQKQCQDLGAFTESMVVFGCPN
Method: For the inhibition studies, E were preincubated with each recombinant protein or pure peptide in the presence of 2% BSA for 5 minutes at RT and added to wells coated with immobilized protein or peptide without washing, unless otherwise indicated. At the end of the binding reactions, wells were washed, examined briefly by light microscopy then solubilized with 1% SDS-0.2 N NaOH. Fluorescence was quantified (excitatory wavelength, 490 nm, emission wavelength, 510 nm) using a SLM 8000 fluorometer (SLM Instruments, Urbana, Ill.). In experiments where the effects of individual divalent cations were measured, Ca²⁺ and Mg²⁺ were replaced with metal-free buffers or with buffers containing each cation at 1. MM, unless otherwise indicated. The effect of temperature was evaluated in the presence of 1 mM MnCl₂ at 37° C. and at 4° C.

B1: recombinant CD11a A domain (receptor, human, UniProt P20701 153-332, looked up)
chain: GNVDLVFLFDGSMSLQPDEFQKILDFMKDVMKKLSNTSYQFAAVQFSTSYKTEFDFSDYVKRKDPDALLKHVKHMLLLTNTFGAINYVATEVFREELGARPDATKVLIIITDGEATDSGNIDAAKDIIRYIIGIGKHFQTKESQETLHKFASKPASEFVKILDTFEKLKDLFTELQKKIY
notes: domain: A domain; Expressed as a GST fusion in E. coli, used as such or released by thrombin; also called r11aA; rCD11a A-domain
As to B1, the binding result is listed as “no binding”.
